The values below come from article PMC8421406, “C9orf72-derived arginine-rich poly-dipeptides impede phase modifiers” (Nature Communications, 2021).

A word on the stoichiometry N: it is the number of molecules, sites or subunits per partner or assembly. In general, Kd refers to a measure of binding affinity in units of concentration. A higher Kd goes with lower affinity.

Common to all, as to conditions: both partners purified
In assay [1] the target is T1, mCh:FUS-LC (mCherry fusion LC-domain of FUS, residue 2–214), as hydrogel (UniProt P35637 2-214).
T1 construct: fused in sarcoma (FUS), LC-domain, residue 2–214; Polymerised in the hydrogel; plasmid from the Steven L. McKnight Laboratory; source: E. coli BL21(DE3), purified (Ni-NTA Agarose), prepared as hydrogel droplets; not shown: mCherry, N-terminal, kept
T1 sequence (looked up): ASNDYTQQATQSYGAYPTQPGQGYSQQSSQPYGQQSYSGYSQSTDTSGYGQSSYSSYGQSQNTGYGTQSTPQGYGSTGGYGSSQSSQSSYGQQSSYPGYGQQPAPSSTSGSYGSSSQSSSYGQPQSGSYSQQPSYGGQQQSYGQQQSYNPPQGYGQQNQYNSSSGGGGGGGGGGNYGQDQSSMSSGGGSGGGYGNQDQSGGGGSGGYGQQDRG
In words: hydrogel binding assay; 1 µM purified GFP-fused protein pipetted onto hydrogel droplets of the mCherry-fused LC-domain, overnight, confocal microscopy; ± Kapβ2 (0.1, 0.3, 1.0 µM) ± PR20; 20 mM Tris-HCl pH 7.5, 150 mM NaCl, 20 mM β-mercaptoethanol, 0.1 mM PMSF, 0.5 mM EDTA.

The next assay deals with T2, karyopherin-β2 (Kapβ2) (UniProt Q92973 1-898, for NMR: [U-2H; Ile-δ1-13CH3; Leu, Val-13CH3/12CH3]-labeled).
T2 construct: karyopherin-β2 (Kapβ2), nuclear import receptor; Expressed as GST fusion from pGEX6P-1; also called isotopically labeled Kapβ2; source: E. coli BL21(DE3), purified (GSH Sepharose, HRV3C cleavage, anion exchange, gel filtration); not shown: GST, N-terminal, cleaved
T2 sequence (looked up): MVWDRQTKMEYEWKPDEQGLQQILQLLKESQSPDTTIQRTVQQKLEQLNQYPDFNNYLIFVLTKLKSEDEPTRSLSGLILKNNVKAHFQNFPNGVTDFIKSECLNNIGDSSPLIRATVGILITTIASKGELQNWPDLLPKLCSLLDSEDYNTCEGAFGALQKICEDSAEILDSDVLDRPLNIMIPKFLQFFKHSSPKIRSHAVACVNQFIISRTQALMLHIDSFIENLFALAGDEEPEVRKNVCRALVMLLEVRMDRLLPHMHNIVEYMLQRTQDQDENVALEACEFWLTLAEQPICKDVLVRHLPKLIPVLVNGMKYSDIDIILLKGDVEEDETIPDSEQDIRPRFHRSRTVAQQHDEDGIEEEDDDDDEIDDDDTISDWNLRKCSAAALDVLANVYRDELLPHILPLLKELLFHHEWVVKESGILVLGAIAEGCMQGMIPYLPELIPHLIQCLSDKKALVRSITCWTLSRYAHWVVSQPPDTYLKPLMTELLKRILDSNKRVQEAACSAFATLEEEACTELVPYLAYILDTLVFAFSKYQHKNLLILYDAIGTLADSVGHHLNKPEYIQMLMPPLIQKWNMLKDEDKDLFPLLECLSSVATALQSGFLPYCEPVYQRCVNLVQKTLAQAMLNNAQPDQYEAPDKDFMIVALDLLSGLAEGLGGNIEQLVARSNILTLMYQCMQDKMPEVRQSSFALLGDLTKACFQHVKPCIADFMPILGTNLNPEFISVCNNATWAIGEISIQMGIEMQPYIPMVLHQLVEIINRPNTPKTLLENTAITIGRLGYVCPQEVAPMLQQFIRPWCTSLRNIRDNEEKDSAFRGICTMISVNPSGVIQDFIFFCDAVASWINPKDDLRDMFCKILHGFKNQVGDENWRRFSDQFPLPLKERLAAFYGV
In words: SEC-MALS; Superdex200 10/300 GL; 28 µM Kapβ2 injected in the absence and presence of 55 µM MBP:PR18; 20 mM HEPES pH 7.4, 150 mM NaCl, 2 mM MgCl2, 10% glycerol, 2 mM β-mercaptoethanol. (In general: SEC sorts molecules by how far they enter the pores of the column.)

In assay [2] the target is T3, Kapβ2 (ΔLoop, residues 321–371 were replaced with GGSGGSGS linker) (UniProt Q92973-2 1-320; Q92973-2 372-890).
T3 construct: karyopherin-β2 (Kapβ2), the part before the loop, up to residue 320; linker that replaces residues 321–371; karyopherin-β2 (Kapβ2), the part after the loop, from residue 372; source: E. coli BL21(DE3), purified; not shown: GST, N-terminal, cleaved
T3 chain: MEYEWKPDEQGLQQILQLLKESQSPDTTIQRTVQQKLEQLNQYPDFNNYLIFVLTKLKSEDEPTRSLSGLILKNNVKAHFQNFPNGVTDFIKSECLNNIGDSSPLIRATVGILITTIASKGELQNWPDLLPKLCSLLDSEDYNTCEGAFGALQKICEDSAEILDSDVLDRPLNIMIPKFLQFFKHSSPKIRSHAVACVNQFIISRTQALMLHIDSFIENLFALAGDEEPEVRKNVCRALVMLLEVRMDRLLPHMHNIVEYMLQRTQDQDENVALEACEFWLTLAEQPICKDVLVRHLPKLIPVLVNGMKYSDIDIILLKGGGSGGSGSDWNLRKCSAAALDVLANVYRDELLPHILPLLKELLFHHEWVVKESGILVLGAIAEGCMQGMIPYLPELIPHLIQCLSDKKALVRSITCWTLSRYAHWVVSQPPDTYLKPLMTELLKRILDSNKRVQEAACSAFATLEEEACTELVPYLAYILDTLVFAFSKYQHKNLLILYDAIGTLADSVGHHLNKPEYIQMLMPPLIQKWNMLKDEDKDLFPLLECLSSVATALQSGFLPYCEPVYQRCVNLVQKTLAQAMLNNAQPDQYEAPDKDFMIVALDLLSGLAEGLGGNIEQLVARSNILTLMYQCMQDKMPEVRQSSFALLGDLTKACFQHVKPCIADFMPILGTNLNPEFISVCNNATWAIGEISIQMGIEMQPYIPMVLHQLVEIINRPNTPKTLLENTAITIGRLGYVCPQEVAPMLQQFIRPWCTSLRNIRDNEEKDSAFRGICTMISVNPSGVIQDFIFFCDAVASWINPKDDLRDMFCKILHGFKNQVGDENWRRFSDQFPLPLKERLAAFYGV
Kind of assay: ITC; 200 μM MBP:PR18 titrated into 20 μM Kapβ2 (ΔLoop) in the cell; 25 °C; 20 mM HEPES pH 7.4, 150 mM NaCl, 10% glycerol, 2 mM β-mercaptoethanol; 19 injections of 2 μL. In general terms: Isothermal titration calorimetry measures the heat released or taken up as one component is titrated into another.

B1: GFP:FUS-LC:NLS (GFP:FUS-LC fusion FUS-NLS, 501–526) (domain or fragment, UniProt P35637 2-214, looked up)
chain: ASNDYTQQATQSYGAYPTQPGQGYSQQSSQPYGQQSYSGYSQSTDTSGYGQSSYSSYGQSQNTGYGTQSTPQGYGSTGGYGSSQSSQSSYGQQSSYPGYGQQPAPSSTSGSYGSSSQSSSYGQPQSGSYSQQPSYGGQQQSYGQQQSYNPPQGYGQQNQYNSSSGGGGGGGGGGNYGQDQSSMSSGGGSGGGYGNQDQSGGGGSGGYGQQDRGGDRGGFGPGKMDSRGEHRQDRRERPY
notes: fused in sarcoma (FUS), LC-domain, residue 2–214; fused in sarcoma (FUS), NLS, residue 501–526; Built with the In-Fusion HD Cloning Kit; also called FUS-LC fusion NLS; source: E. coli BL21(DE3), purified (Ni-NTA Agarose); not shown: GFP, N-terminal, kept
For the molecule B1, in assay [1], the binding result is listed as “binds”.

B2: GFP:FUS-LC (green fluorescent protein fusion LC-domain of FUS, residue 2–214) (domain or fragment, UniProt P35637 2-214, looked up)
chain: ASNDYTQQATQSYGAYPTQPGQGYSQQSSQPYGQQSYSGYSQSTDTSGYGQSSYSSYGQSQNTGYGTQSTPQGYGSTGGYGSSQSSQSSYGQQSSYPGYGQQPAPSSTSGSYGSSSQSSSYGQPQSGSYSQQPSYGGQQQSYGQQQSYNPPQGYGQQNQYNSSSGGGGGGGGGGNYGQDQSSMSSGGGSGGGYGNQDQSGGGGSGGYGQQDRG
notes: fused in sarcoma (FUS), LC-domain, residue 2–214; Plasmid from the Steven L. McKnight Laboratory; source: E. coli BL21(DE3), purified (Ni-NTA Agarose); not shown: GFP, N-terminal, kept
On to B2, for which, in assay [1], the binding result is listed as “binds”.

B3: MBP:PR18 (18 repeats of Pro-Arg) (peptide)
chain: PRPRPRPRPRPRPRPRPRPRPRPRPRPRPRPRPRPR
notes: proline:arginine poly-dipeptide from the C9orf72 repeat expansion; source: E. coli BL21(DE3), purified (amylose resin, cation exchange, gel filtration); not shown: MBP, N-terminal, kept
On to B3, for which the “stoichiometry N” value with karyopherin-β2 (Kapβ2) worked out at 1. This molecule also had a Kd in assay [2] of 81.3 nM.
